Reference: publication PMC12533313 (2025)

Target: α‐synuclein preformed fibrils (UniProt P37840 1-140)
Assay: SPR

B1: Recombinant mouse 24p3R protein (receptor)
chain: MPSARFGRRGIVLLTLGLVGPCGVGGAAAGSSTGIMALRFLLGFLLAGVDLGVYLMRLELCDPTQRLRVALAGELVGVGGHFLFLGLALVSKDWRFLQRMITAPCILFLFYGWPGLFLESARWLIVKRQIEEAQSVLRILAERNRPHGQMLGEEAQEALQELENTCPLPATSTFSFASLLNYRNIWKNLLILGFTNFIAHAIRHCYQPVGGGGSPSDFYLCSLLASGTAALACVFLGVTVDRFGRRGILLLSMTLTGIASLVLLGLWDYLNDAAITTFSVLGLFSSQASAILSTLLASEVIPTTVRGRGLGLIMALGALGGLSCPAQRLHMGHGAFLQHVVLAACALLCILSIMLLPETKRKLLPEVLRDGELCRRPSLLRQPPPNRCDHVPLLATPNPAL
  Kd: 6.67 µM
